Source: the supplement of paper PMC12042874
± gives the uncertainty stated by the source.

assay: amyloid nucleation score (Sup35N fusion, yeast selection) (log enrichment); library NNK3; higher = more nucleation; inactive = no reads after selection
In short: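 Psi-negative yeast expressed Sup35N fused to peptides of 20 random codons. They were induced 24 hours with 100 μM copper sulfate, grown 7 days at 30°C without adenine and uracil, and their plasmid inserts from input and output were Illumina-sequenced. The nucleation score is the DiMSum log enrichment of output over input reads, centred on the mode score of non-aggregating sequences. Sequences with under 100 input reads were excluded.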

Substance | amyloid nucleation score
LSMDLPNQSLDKVSKRHSAN | inactive
VMIVRLYVIYPMFEVKP | inactive
YIVRDNEAYRKYGSANESGC | inactive
QDLMRTEHFNYS | inactive
KSHPLNSVPEKLMLVWRSWK | inactive
MPMGGRYSAKAIVLVQKKDW | inactive
LVVLLFYFCYSHGYDEKVQW | 0.996 ± 0.12
WTSQVMRMDKTQVTGRDRVA | inactive
CVGHVRSYYGMQIPKGLKLS | inactive
CCNDWR | inactive
SQQRQVMPKRQSEKLYPSH | inactive
AFSFMLACWQRRIAQALAYL | inactive
WHTLLDCGVGEFWS | inactive
FKYLWADREVNVGQKHSVIG | -0.174 ± 0.7
DTTFMQYVAIYVLVSKLFIE | inactive
VRIFSTVEKASP | inactive
IETGSKYVAVRARLQSVMDG | inactive
RLLHCGRILWGFVNDLMIML | inactive
TLNRLTKKHCFGNFWLYSAW | inactive
LLHVVFNTFLYRLEPEYTSK | inactive
PESFKGTQCVKFFYNCLLFK | 1.2 ± 0.086
FGTNVLYAFM | inactive
LVYNQVVHRFLTLVFLSYMS | inactive

Substance | amyloid nucleation score
DQGNPSNSSLDLPLGGSFGE | inactive
RLCNHKILDPACVLTSQVPI | inactive
WDPGFFWIMAVARFTIACQY | inactive
STDWDFHMRTFPGHVTKCWK | inactive
FRLRYRYFCRGRGCMDDLEY | -0.288 ± 0.8
LENLLGMWVSCAWLSGSHFV | inactive
AHGHISCLLTYTAYWYCCV | 0.502 ± 0.19
PTAFCNSSQYV | inactive
VSCRQLYQSIGGRKPDRRFI | inactive
SMKEVLMTSGTSNVITSGGD | inactive
LNSFSPGKNDCS | inactive
YISCMCANIRNIFVISIH | 1.81 ± 0.08
LSYFYKVPLDTAYMW | 1.07 ± 0.12
LGWGHACMKFVDHCVRSSRS | inactive
KICVPSCSCTIFLDLFRY | 2.56 ± 0.08
HSSKSTGTYFGNMS | inactive
FIVYLSCPWVRRFIVVMEFM | inactive
GCRYQGHCHVYYLAERIACD | inactive
QWFRKLFYLTSLEDAPQIPR | inactive
RRFVNVLGMHC | 0.693 ± 0.16
LLRSYFVVAC | inactive
FSAMTPSGRWHDRSRSDVIN | inactive
MSTVRHVRWRQGQGKMRGRK | inactive

Substance | amyloid nucleation score
NSSDVRQVLAIIRCGVV | inactive
DCFMGPLVSNCGFYECRLSV | inactive
DVALCKYFGLNTIVNSFLAM | 1.42 ± 0.081
PKFFEAPQLQLFDAYSSMDF | inactive
YSTMRS | inactive
FVSKHRVSTIWRVISHMRGG | -0.257 ± 0.98
PNSLRRCVSRLVPRGLPRKR | inactive
VLIYRRGFNYLRVLCCTTGF | inactive
SSIHVGVYYFMCMLEDVSRE | 1.07 ± 0.14
SENICLYT | inactive
VDISFVSAWKDLLLGRLVCD | inactive
FIGGVVTVTVYNNTVESGLK | 1.65 ± 0.13
TRERWTTVYLNKLFLLCYSD | inactive
FLRLCLVVRLRCVVISMGNY | inactive
FYKLRHQVRTKISERYLPDS | inactive
AYKAAYAVWCVIINGGLF | inactive
DFVDARFWQIFGFSNAEQGL | inactive
HIVLLKCIQAAETVAGFKW | inactive
VIITSSTVLMFRFLEYRESQ | inactive
KFGFLYPISCDVYGQDFLAL | inactive
RYYSDNDYAMQLLLEHTALY | inactive
CVFYCSKLWIRYNNVMMISS | 0.831 ± 0.1
LFDLRDNVCSRVSRNYTAGA | inactive

Substance | amyloid nucleation score
VMTITLVLKWYGLLT | inactive
YFRFRSFLVLSDM | inactive
MDITWIKVVHNIHQTVRSKF | 1 ± 0.22
SYYSRIRLLRRVRVSYYYVR | 0.801 ± 0.22
PLIYSTLNCKRM | inactive
GVDSARQRSDHVNRERSSGC | inactive
TPHLSCNLRYG | inactive
LRRYALLVNAAQKEMRYSSS | -0.616 ± 1.1
STYLMSFVLYWLWQRSLDTC | inactive
IPGALGNKAICTRASSRRVG | inactive
VGNQKIIMRGALELDRELTC | inactive
ANDVISYTFFLSEERG | inactive
CLFRYSEYSVGKLMGYCDCG | inactive
GYMSLLHSKPPFWSNP | 0.465 ± 0.64
TNRIMNPVYDILWSGMGQPC | inactive
KLRCNTIKGFCSHKTRMGRT | inactive
VVDGLMAVFLSHVRVAIYYV | inactive
QCEAGSGIIAVLHY | inactive
DCVNWTWHTTDNLVVTYSYN | inactive
SGSGFQLLDGLTTRFSVVTF | inactive
RQLMRSDPAMGTICERY | inactive
GWHQVTGFMYAIVFVTART | inactive
DLHMIATMGECMHCEMHL | inactive

Substance | amyloid nucleation score
VFDPGLSNCWRVTGWNED | inactive
LCTSADYWSHKNRGRAYSRR | inactive
FQSHLNIVIVYIRLNYTVLL | -0.394 ± 0.63
YQVSI | inactive
ILTISNTAKKSDW | inactive
SNMSMMSYYAGRDPRPVSFL | inactive
FAYWWRTVTPVCSGLVRYCW | inactive
CNDLVYFMMFVLYLVTRWET | inactive
KRNSYTMFLA | inactive
TWVCEG | inactive
VWKLRLDVLIITIWGFNFYL | inactive
KWPQLIWSGTYFKPFWSING | inactive
ISGFKIVSYMNKIVVSTMGL | inactive
LKVRLALLCRSEQRSPSTEV | inactive
TVRKSRSRSTQDEAFNPGTH | 0.111 ± 0.63
HTTIQETFVRIPRLCRWHRR | inactive
HNITPESAKVCKVRRCLGSD | 0.619 ± 0.2
VWETATNFSISMLWRQAFRM | inactive
GNNRGTVSWVERGAWALTKA | inactive
PRCVC | inactive
HIHEDWFFS | inactive
GRHRFYSAIKQVQR | inactive
ETLWVKVYLTYLNMTRMSGY | inactive

Substance | amyloid nucleation score
HDARGLIIFARSHSAESRVR | inactive
CHRRLML | inactive
FVTYCVRQETV | 0.578 ± 0.15
FGFYSCTLGG | inactive
FVYFKLGVMSPLQTTNTHLS | 0.804 ± 0.11
FFVLLLFVRVYKIALNFMMG | inactive
PTAKRM | inactive
CCMSSIIVCYCWMYGTTKLM | 0.927 ± 0.1
CLGADCVAHFSYFHA | inactive
LVYNTDQSTRYAMTDYDADL | inactive
FRSNGSIWVRGSETFTIAP | inactive
AGYGSVSRLSMEKMEFNQ | inactive
IDIESL | inactive
TLLHDSDVGMQLSGSQRFFS | inactive
GWVLILKMGYFRSLWNITVL | inactive
VCLCNQVRLTM | inactive
TVLSVGINDFPYRSAISCLR | inactive
NCCQFPVDAS | inactive
IKGLAPRFAVGLDNLMSESM | inactive
IVFSGNLLVGNGFGVLKRKT | 1.32 ± 0.14
GHVAHLINILYVNSTIPQTG | inactive
SCAYGLGCMLMVKHN | inactive
RSCSCLSRDKYNYLLIDSLV | inactive

Substance | amyloid nucleation score
SSYLI | inactive
HWIHGRR | inactive
WMFSRL | inactive
YFEYRPKMHHYSLCYMGEFS | inactive
LVMHMRLAWRECDHVSKQMR | 0.883 ± 0.15
SLHWVYYIINYTVALTGVLL | inactive
ADKWSHGAHDRVVLVLRVCR | inactive
QRDHMGFSGDLW | inactive
SSPCSVMVKVGSDHFERVAI | inactive
IRNFPRDLEFLPFWHSILSL | inactive
QSKSYFTL | inactive
TAFYSRYFWVNLICRRPSFK | inactive
VRVRVHVVVVVKLLKMVGAV | inactive
PVHSMASQLPYNNNTTKCLV | inactive
GIMSCQ | 0.021 ± 0.88
LILYSLGNNTHEMIYLWSNR | inactive
TIAHYTVP | inactive
SAWVIIIMLARYVAIS | inactive
